Measured values taken from patent US20060078537A1 (published 2006).

Columns and labels:
CD4 on human T cells [1] = biological target: T1, CD4 on human T cells (human, UniProt P01730 26-458); assay: FACS on PBMC
T1 construct: whole, on cells
Procedure: (§1) PBMC were incubated for 1 h on ice with the constructs RM and MR in various concentrations. After washing with PBS, cell bound constructs were detected with an antibody against 6×His (Dianova) or an antibody against RANTES (VL-1) followed by incubation with PE-labelled rabbit-anti-mouse F(ab) fragments (Dako R439). Binding of RM and MR to CD4 on T cells was detected by FACS analysis (FIG. 6A).

human CCR5 = biological target: T2, human CCR5 (human, UniProt P51681 1-352); assay: told from CCR5 internalization on CD4+ and CD8+ T cells of human PBMC (FACS)
T2 construct: whole, on cells; also called CCR5 receptor
T2 sequence (P51681 whole entry): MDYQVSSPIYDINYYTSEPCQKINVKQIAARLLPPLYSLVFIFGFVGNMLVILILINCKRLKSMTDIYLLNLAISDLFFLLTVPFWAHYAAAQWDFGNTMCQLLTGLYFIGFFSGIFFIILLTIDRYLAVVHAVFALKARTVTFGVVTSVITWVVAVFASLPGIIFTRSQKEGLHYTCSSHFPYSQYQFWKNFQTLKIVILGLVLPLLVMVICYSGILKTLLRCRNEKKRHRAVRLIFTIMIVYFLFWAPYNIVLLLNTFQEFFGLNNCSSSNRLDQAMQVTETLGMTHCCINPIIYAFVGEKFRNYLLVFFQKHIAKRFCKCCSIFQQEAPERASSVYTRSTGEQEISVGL
Procedure: (§2) RM and MR induced internalization of CCR5 on T cells is shown in FIGS. 7A and 7B, respectively. Human PBMC were incubated for 30 min at 37° C. with various concentrations of RM (FIG. 7A), MR (FIG. 7B) and RANTES and stained on ice for 1 h with a combination of directly conjugated antibodies against CCR5, CD8 and CD4. Mean channel fluorescence (MCF) of CCR5 was quantified on CD4 and CD8 positive T cells by FACS-analysis. Relative surface expression of CCR5 was calculated as [MCF(exp.)-MCF(negative control)]/[(MCF(medium)-MCF(negative control).
as §2, with “Human” for “RM and MR induced internalization of CCR5 on T cells is shown in FIGS. 7A and 7B, respectively. Human”, “RANTES. Cells were then” for “RANTES and”, “CD4 (CCR5-PE, Pharmingen, CD8-Cychrome, Immunotech and CD4-APC, Immunotech). CD4+ and CD8+ T cells were identified by expression of CD4 and CD8 as well as by their light scatter properties.” for “CD4.”

CD4 on human T cells [2] = biological target: T1, CD4 on human T cells; assay: FACS on PBMC, 1 h on ice, detected with anti-6xHis or anti-RANTES (VL-1) antibody
Procedure: as §1

| Binder | binding result (CD4 on human T cells [1]) | binding result (human CCR5) | binding result (CD4 on human T cells [2]) |
| --- | --- | --- | --- |
| RM construct (RANTES-linker-(VH) anti-CD4-linker-(VL) anti-CD4) (other, also called RANTES-antiCD4; RANTES-anti-CD4) SPYSSDTTPCCFAYIARPLPRAHIKEYFYTSGKCSNPAVVFVTRKNRQVCANPEKKWVREYINSLQMSSGGGGSGGGGSDIQLQQSGPELVKPGASVKMSCKASGYTFTDYVINWVKQRTGQGLEWIGEIYPGSGSDYYNENLKDKATLTADKSSNTAYMQLSSLTSEDSAVYFCARKGENGNSLAFAYWGQGTLVTVSAGGGGSGGGGSGGGGDIVLTQSPASLAVSLGQRATISCKASQSVDYDGDSYMNWYQQKSGQPPKLLIYAASNLESGIPARFSGSGSGTDFTLNIHPVEEEDAATYYCQQSIQDPCTFGGGTELEIKHHHHHH | binds | binds |  |
| MR construct ((VL) anti-CD4-linker-(VH) anti-CD4-linker-RANTES) (other, Expressed in the periplasm of E. coli and also in CHO cells; also called antiCD4-RANTES) DYKDDDDKDIVLTQSPASLAVSLGQRATISCKASQSVDYDGDSYMNWYQQKSGQPPKLLIYAASNLESGIPARFSGSGSGTDFTLNIHPVEEEDAATYYCQQSIQDPCTFGGGTELEIKGGGGSGGGGSGGGGSQVQLQQSGPELVKPGASVKMSCKASGYTFTDYVINWVKQRTGQGLEWIGEIYPGSGSDYYNENLKDKATLTADKSSNTAYMQLSSLTSEDSAVYFCARKGENGNSLAFAYWGQGTLVTVSAGGGGSGGGGSSPYSSDTTPCCFAYIARPLPRAHIKEYFYTSGKCSNPAVVFVTRKNRQVCANPEKKWVREYINSLQMSHHHHHH |  | binds | binds |
